This note sets out measurements from patent US20240425569A1 (VISTERRA, published 2024).

Numbering of substitutions follows the chain as printed. Like-named read-outs stand apart in the source and are kept apart here. Some results are limits rather than exact numbers.

For test [1], the target named is T1, Vietnam/2008 (serotype I EDIII).
T1 construct: also called ED3-DV1/Viet08
T1 E protein domain III (EDIII): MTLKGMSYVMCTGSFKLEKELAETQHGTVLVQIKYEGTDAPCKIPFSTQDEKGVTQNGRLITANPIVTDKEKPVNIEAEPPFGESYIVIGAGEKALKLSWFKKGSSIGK

The target in test [2] is T2, EDIII-DV1 (E protein domain III of dengue virus serotype DV-1) (dengue virus serotype DV-1, UniProt P17763 573-680).
T2 construct: also called DENV-1; EDIII of DV-1
T2 chain: T1 E protein domain III (EDIII) with L21V, I33V, V54A, I89V
The test is described as follows: competition ELISA. In general terms: An ELISA detects its analyte on a solid surface through an enzyme-linked reagent.

In test [3] the target is T3, Cambodia/2008 (serotype III EDIII).
T3 construct: Genotype II; also called ED3-DV3/Cambodia08
T3 E protein domain III (EDIII): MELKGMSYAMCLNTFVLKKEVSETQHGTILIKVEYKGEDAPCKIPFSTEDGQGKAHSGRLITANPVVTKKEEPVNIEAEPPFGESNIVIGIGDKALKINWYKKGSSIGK
Kind of test: ELISA; row Cambodia/2008, serotype III, genotype II.

Test [4] has as its target T4, New Guinea/1944 (NGC)* (serotype II EDIII) (Dengue virus 2).
T4 construct: isolated EDIII protein; also called EDIII of DENV-2 NGC
Kind of test: Kd table, method not stated; Ag DENV-2 NGC.

In test [5] the target is T5, Singapore/2009 (serotype III EDIII).
T5 construct: also called ED3-DV3/Sing09; DENV-3 Sing
T5 E protein domain III (EDIII): T3 E protein domain III (EDIII) with L12Q, T14A, S57N

Test [6] addresses T6, Peru/1995 (serotype II EDIII).
T6 construct: also called ED3-DV2/Peru95; DENV-2 Peru
The test is described as follows: ELISA; row Peru/1995, serotype II, genotype American.

Test [7] has as its target ED3-DV4/H241/Phil56 (EDIII of DENV-4 strain H241) (dengue virus serotype DENV-4, strain …, UniProt Q58HT7 572-679). Kind of test: SPR; row Philippines/1956 (H241)*, serotype IV, genotype I. Background: SPR reads the build-up and loss of mass on a sensor chip optically.
Test [8] deals with T7, Mexico/1977 (BC287/97)* (serotype IV EDIII) (Dengue virus 4).
T7 construct: isolated EDIII protein; also called EDIII of DENV-4 Mexico/1997 (BC287/97); DENV-4 BC2
The test is described as follows: ELISA; row Mexico/1977 (BC287/97)*, serotype IV, genotype IIa.

The target in test [9] is T8, Philippines/1956 (H87)* (serotype III EDIII) (Dengue virus 3).
T8 construct: isolated EDIII protein
T8 sequence (P27915 576-671): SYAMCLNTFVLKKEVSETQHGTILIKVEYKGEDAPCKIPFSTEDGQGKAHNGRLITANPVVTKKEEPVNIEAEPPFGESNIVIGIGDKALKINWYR
The test is described as follows: ELISA; row Philippines/1956 (H87)*, serotype III, genotype I.

Test [10] concerns the target T1, Vietnam/2008 (serotype I EDIII).
In test [11] the target is T9, New Caledonia/2009 (serotype IV EDIII).
T9 construct: also called ED3-DV4/NewCal09; DENV-4 NC
T9 E protein domain III (EDIII): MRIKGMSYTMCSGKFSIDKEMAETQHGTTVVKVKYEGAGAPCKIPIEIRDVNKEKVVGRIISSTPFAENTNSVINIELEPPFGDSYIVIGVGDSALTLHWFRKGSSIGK
Kind of test: SPR; row New Caledonia/2009, serotype IV, genotype IIb.

Test [12] addresses T10, Thailand/1997 (serotype IV EDIII).
T10 E protein domain III (EDIII): T9 E protein domain III (EDIII) with K19R, A38T, I44V, N69S, I74T
The test is described as follows: SPR; row Thailand/1997, serotype IV, genotype III.

Test [13] concerns the target T11, Singapore/2008 (serotype II EDIII).
T11 construct: also called ED3-DV2/Sing08; DENV-2 Sing
The test is described as follows: Kd table, method not stated; Ag DENV-2 Sing.

The target in test [14] is T5, Singapore/2009 (serotype III EDIII).
Test [15] concerns the target T7, Mexico/1977 (BC287/97)* (serotype IV …). The test is described as follows: SPR; row Mexico/1977 (BC287/97)*, serotype IV, genotype IIa.
Test [16] shares this target. Kind of test: Kd table, method not stated; Ag DENV-4 BC2.
For test [17], the target named is T12, Venezuela/2008 (serotype IV EDIII).
T12 E protein domain III (EDIII): T9 E protein domain III (EDIII) with I44V, I60V, S63A, F66L, I74T, D93N
The test is described as follows: ELISA; row Venezuela/2008, serotype IV, genotype IIa.

For test [18], the target named is T13, Venezuela/2007 (serotype II EDIII).
T13 construct: also called ED3-DV2/Venezuela07
T13 E protein domain III (EDIII): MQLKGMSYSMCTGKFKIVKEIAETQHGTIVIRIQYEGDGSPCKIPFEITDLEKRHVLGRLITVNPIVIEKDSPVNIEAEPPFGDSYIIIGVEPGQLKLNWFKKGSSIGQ
The test is described as follows: SPR; row Venezuela/2007, serotype II, genotype SE-Asian/American.

Test [19] concerns the target T14, EDIII-DV4 (E protein domain III of dengue virus serotype DV-4) (dengue virus serotype DV-4, UniProt P09866 572-679).
T14 construct: also called DENV-4

T4 sequence (P14340 578-673): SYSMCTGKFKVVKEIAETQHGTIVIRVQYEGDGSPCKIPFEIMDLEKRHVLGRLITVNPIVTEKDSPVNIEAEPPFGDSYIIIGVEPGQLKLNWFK

B1: antibody D88 (antibody, V domains shown)
VH: QVQLVQSGAEVKKPGASVKVSCKAGFNIKDVYMSWVRQAPEQGLEWMGRIDPENGDTKYDPKLQGRVTMTADTSTNTAYMELRSLRSDDTAVYYCARGWEGFAYWGQGTLVTVSS
VL: DIVMTQSPASLAVSLGERATISCRASENVDKYGNSFMHWYQQKPGQPPKLLIYRASELQWGVPDRFSGSGSGTDFTLTISSLQAEDVAVYYCQRSNEVPWTFGQGTKLEIK
notes: also called mAb D88
As usually defined, the Kd is the free concentration of one partner at which half of the binding sites on the other are occupied at equilibrium, for simple one-to-one binding. A higher Kd goes with lower affinity. Turning to B1, the dissociation constant (Kd) in test [1] is 0.031 nM; in [2] it was below 0.1 nM; in test [3] it was 1.32 nM; in test [4] it was below 0.1 nM; in test [5], 0.35 nM; in test [6], below 0.1 nM. Moreover, the equilibrium dissociation constant (Kd) in [7] was 118 nM; in test [8] it was 4.32 nM; in test [9], 1.24 nM; in test [10] it was below 0.1 nM; in [11], 8.9 nM; in test [12], above 300 nM. Moreover, the Kd is below 0.1 nM in [13]; 0.61 nM in test [14]; 3.8 nM in test [15]; 7.2 nM in test [16]; 4.5 nM in test [17]; 0.029 nM in [18]. In addition, the Kd in test [19] stood at 3.8 nM.
